Experimental data: patent US20130225488A1 (CADILA HEALTHCARE, published 2013)
Where no end group is shown, it is not given here. [ ]: non-standard residue; d: D form. αMePhe(2-F) = C[C@](N)(Cc1ccccc1F)C(=O)O; Ac3c = NC1(C(=O)O)CC1

B1: Seq. ID. No. 21: HSQGT-(α-Me-2F-Phe)-TSD-Bip(OMe)-Bip(2Me) (peptide)
peptide: HSQGTXTSDXX
modifications: α-Me-2F-Phe at 6; Bip(OMe) at 10; Bip(2Me) at 11
B2: Seq. ID. No. 26: HAQGT-(α-Me-2F-Phe)-TSD-Bip(OMe)-Bip(Pyr) (peptide)
peptide: HAQGT[αMePhe(2-F)]TSD[Bip(OMe)][Bip(Pyr)]
B3: Seq. ID. No. 10: HAQGTFTSD-Bip(OMe)-Bip(Pyr) (peptide)
peptide: HAQGTFTSD[Bip(OMe)][Bip(Pyr)]
B4: Seq. ID. No. 22: HSQGT-(α-Me-2F-Phe)-TSD-Bip(OMe)-Bip(Pyr) (peptide)
peptide: HSQGTXTSDXX
modifications: α-Me-2F-Phe at 6; Bip(OMe) at 10; Bip(Pyr) at 11
B5: Seq. ID. No. 24: HSQGT-(α-Me-2F-Phe)-TSD-Bip(OMe)-Bip(2CF3) (peptide)
peptide: HSQGTXTSDXX
modifications: α-Me-2F-Phe at 6; Bip(OMe) at 10; Bip(2CF3) at 11
B6: Seq. ID. No. 28: HAQGT-(α-Me-2F-Phe)-TSD-Bip(OMe)-Bip(2CF3) (peptide)
peptide: HAQGT[αMePhe(2-F)]TSD[Bip(OMe)][Bip(2CF3)]
B7: Seq. ID. No. 27: HAQGT-(α-Me-2F-Phe)-TSD-Bip(OMe)-Bip(2F) (peptide)
peptide: HAQGT[αMePhe(2-F)]TSD[Bip(OMe)][Bip(2F)]
B8: Seq. ID. No. 36: H-(ACP)-QGT-(α-Me-2F-Phe)-TSD-Bip(OMe)-Bip(2CF3) (peptide)
peptide: HXQGTXTSDXX
modifications: not fully specified; ACP at 2; α-Me-2F-Phe at 6; Bip(OMe) at 10; Bip(2CF3) at 11
B9: Seq. ID. No. 25: HAQGT-(α-Me-2F-Phe)-TSD-Bip(OMe)-Bip(2Me) (peptide)
peptide: HAQGT[αMePhe(2-F)]TSD[Bip(OMe)][Bip(2Me)]
B10: Seq. ID. No. 20: H-(ACP)-QGTFTSD-Bip(OMe)-Bip(2CF3) (peptide)
peptide: H[Ac3c]QGTFTSD[Bip(OMe)][Bip(2CF3)]
modifications: not fully specified
B11: Seq. ID. No. 12: HAQGTFTSD-Bip(OMe)-Bip(2CF3) (peptide)
peptide: HAQGTFTSD[Bip(OMe)][Bip(2CF3)]
B12: Seq. ID. No. 19: H-(ACP)-QGTFTSD-Bip(OMe)-Bip(2F) (peptide)
peptide: H[Ac3c]QGTFTSD[Bip(OMe)][Bip(2F)]
B13: Seq. ID. No. 23: HSQGT-(α-Me-2F-Phe)-TSD-Bip(OMe)-Bip(2F) (peptide)
peptide: HSQGTXTSDXX
modifications: α-Me-2F-Phe at 6; Bip(OMe) at 10; Bip(2F) at 11
B14: Seq. ID. No. 6: HSQGTFTSD-Bip(OMe)-Bip(Pyr) (peptide)
peptide: HSQGTFTSD[Bip(OMe)][Bip(Pyr)]
modifications: not fully specified (C-terminus); printed as HSQGTFTSD-Bip(OMe)-Bip(Pyr)

biological target: Human glucagon receptor (human, UniProt P47871 26-477); experiment: cell-based or functional assay

cAMP production with saturated glucagon peptide; test compound 1 nM	cAMP production with saturated glucagon peptide; test compound 10 nM	cAMP production with saturated glucagon peptide; test compound 100 nM	cAMP production with saturated glucagon peptide; test compound 10 µM	cAMP production with saturated glucagon peptide; test compound '1 nM'	Binder
19 pmol/ml/µg prt	17 pmol/ml/µg prt	15 pmol/ml/µg prt	12 pmol/ml/µg prt	14 pmol/ml/µg prt	B1
15 pmol/ml/µg prt	12 pmol/ml/µg prt	8 pmol/ml/µg prt	2 pmol/ml/µg prt	4 pmol/ml/µg prt	B2
15 pmol/ml/µg prt	12 pmol/ml/µg prt	8 pmol/ml/µg prt	2 pmol/ml/µg prt	4 pmol/ml/µg prt	B3
21 pmol/ml/µg prt	19 pmol/ml/µg prt	18 pmol/ml/µg prt	16 pmol/ml/µg prt	18 pmol/ml/µg prt	B4
4 pmol/ml/µg prt	2 pmol/ml/µg prt	0 pmol/ml/µg prt	0 pmol/ml/µg prt	0 pmol/ml/µg prt	B5
4 pmol/ml/µg prt	3 pmol/ml/µg prt	0 pmol/ml/µg prt	0 pmol/ml/µg prt	0 pmol/ml/µg prt	B6
14 pmol/ml/µg prt	11 pmol/ml/µg prt	7 pmol/ml/µg prt	0 pmol/ml/µg prt	3 pmol/ml/µg prt	B7
3 pmol/ml/µg prt	1 pmol/ml/µg prt	0 pmol/ml/µg prt	0 pmol/ml/µg prt	0 pmol/ml/µg prt	B8
18 pmol/ml/µg prt	16 pmol/ml/µg prt	12 pmol/ml/µg prt	6 pmol/ml/µg prt	8 pmol/ml/µg prt	B9
5 pmol/ml/µg prt	2 pmol/ml/µg prt	0 pmol/ml/µg prt	0 pmol/ml/µg prt	0 pmol/ml/µg prt	B10
5 pmol/ml/µg prt	3 pmol/ml/µg prt	0 pmol/ml/µg prt	0 pmol/ml/µg prt	0 pmol/ml/µg prt	B11
5 pmol/ml/µg prt	3 pmol/ml/µg prt	1 pmol/ml/µg prt	0 pmol/ml/µg prt	0 pmol/ml/µg prt	B12
4 pmol/ml/µg prt	2 pmol/ml/µg prt	2 pmol/ml/µg prt	0 pmol/ml/µg prt	0 pmol/ml/µg prt	B13

biological target: Human GLP-1 receptor (human, UniProt P43220 24-463); experiment: cell-based or functional assay
Sequence (P43220 24-463): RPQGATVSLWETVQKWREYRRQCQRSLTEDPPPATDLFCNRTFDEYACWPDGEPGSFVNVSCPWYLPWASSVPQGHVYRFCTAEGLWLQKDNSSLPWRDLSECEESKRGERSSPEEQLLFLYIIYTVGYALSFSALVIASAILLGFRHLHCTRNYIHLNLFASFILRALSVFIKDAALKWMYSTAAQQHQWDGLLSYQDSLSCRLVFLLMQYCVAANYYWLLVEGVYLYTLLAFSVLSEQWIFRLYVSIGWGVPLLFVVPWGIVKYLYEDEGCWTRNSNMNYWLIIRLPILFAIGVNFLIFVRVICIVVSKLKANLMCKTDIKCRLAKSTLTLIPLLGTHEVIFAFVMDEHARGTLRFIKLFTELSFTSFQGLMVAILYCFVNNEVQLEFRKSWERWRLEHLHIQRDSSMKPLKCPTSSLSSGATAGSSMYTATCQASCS

cAMP release, % activity with respect to control; test compound 1 nM	cAMP release, % activity with respect to control; test compound 10 nM	cAMP release, % activity with respect to control; test compound 100 nM	cAMP release, % activity with respect to control; test compound 1 µM	cAMP release, % activity with respect to control; test compound 10 µM	Binder
39%	80%	86%	95%	98%	B1
39%	80%	88%	96%	99%	B14
41%	82%	87%	95%	98%	B5
55%	88%	92%	99%	99%	B6
82%	87%	92%	99%	99%	B7
38%	77%	85%	94%	97%	B9
46%	85%	90%	99%	99%	B13
